Test results from article PMC10496494.

Assays:
[1] = biological target: NPM1 (human wildtype nucleophosmin, residues 1 to 290) (human) (UniProt P06748); experiment: SPR; Biacore T200; NPM1 immobilised on CM5 chip by amine coupling, DDX24 injected in a concentration series; PBS with 0.05% Tween-20 and 1% DMSO, pH 7.4, 25 °C; Langmuir 1:1 binding model
[2] = biological target: DDX24^E271K (DDX24 with the p.Glu271Lys mutation of MOVLD patients) (human) (UniProt Q9GZR7); experiment: SPR; Biacore T200; DDX24 immobilised on CM5 chip by amine coupling, NPM1 injected in a concentration series; PBS with 0.05% Tween-20 and 1% DMSO, pH 7.4, 25 °C; Langmuir 1:1 binding model

NPM1 (human wildtype nucleophosmin, residues 1 to 290), sequence (P06748 1-290): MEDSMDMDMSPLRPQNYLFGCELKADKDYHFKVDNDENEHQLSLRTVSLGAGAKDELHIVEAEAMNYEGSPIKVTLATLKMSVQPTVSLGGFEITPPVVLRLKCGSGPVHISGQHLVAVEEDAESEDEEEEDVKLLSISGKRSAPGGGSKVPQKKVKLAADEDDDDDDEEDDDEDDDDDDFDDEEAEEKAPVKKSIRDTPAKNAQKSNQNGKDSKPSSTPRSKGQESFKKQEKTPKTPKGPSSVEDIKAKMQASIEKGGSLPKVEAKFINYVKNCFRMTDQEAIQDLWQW
NPM1 (human wildtype nucleophosmin, residues 1 to 290) (human), sequence (P06748 1-290): as above

Row | Kd [1] [nM] | koff [1] [s⁻¹] | kon [1] [M⁻¹ s⁻¹] | Kd [2] [nM] | koff [2] [s⁻¹] | kon [2] [M⁻¹ s⁻¹] | Substance
1 | 5.5 | 0.00316 | 575000 |  |  |  | DDX24^E271K (DDX24 with the p.Glu271Lys mutation of MOVLD patients) (from UniProt Q9GZR7 28-859) (enzyme)
2 |  |  |  | 2.92 | 0.00165 | 564000 | NPM1 (human wildtype nucleophosmin, residues 1 to 290) (from UniProt P06748 1-290) (natural protein)
